From the supplement of paper PMC9112550, “Optimization of the antimicrobial peptide Bac7 by deep mutational scanning” (BMC Biology, 2022)

Tested on: Escherichia coli TOP10
Experiment: shrunken log2 fold change of peptide-encoding DNA abundance (4.5 h post-induction vs induction); higher = less antimicrobial activity (less host growth inhibition)
Conditions: time post-induction: 4.5 h; library: site-saturation at positions 5, 18, 19, 20
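Also: peptides expressed intracellularly from a pBAD plasmid library in pooled LB shake-flask culture, induced with 0.3% L-arabinose, DNA abundance read by NGS, three biological replicates, DESeq2 with apeglm shrinkage.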

| Sequence | shrunken log2 fold change |
| --- | --- |
| RRIRYRPPRLPRPRPRPIGCPRP | 0.225 |
| RRIRYRPPRLPRPRPRPIHHPRP | -1.62 |
| RRIRYRPPRLPRPRPRPIHMPRP | -0.0796 |
| RRIRYRPPRLPRPRPRPIIGPRP | -0.178 |
| RRIRYRPPRLPRPRPRPIIRPRP | -0.2 |
| RRIRYRPPRLPRPRPRPIKMPRP | -0.666 |
| RRIRYRPPRLPRPRPRPIKWPRP | 0.0101 |
| RRIRYRPPRLPRPRPRPILGPRP | -0.00192 |
| RRIRYRPPRLPRPRPRPILSPRP | -0.107 |
| RRIRYRPPRLPRPRPRPILWPRP | -0.0119 |
| RRIRYRPPRLPRPRPRPIMNPRP | -0.123 |
| RRIRYRPPRLPRPRPRPIMYPRP | -0.0119 |
| RRIRYRPPRLPRPRPRPINMPRP | -0.281 |
| RRIRYRPPRLPRPRPRPIPHPRP | 0.046 |
| RRIRYRPPRLPRPRPRPIQAPRP | 0.107 |
| RRIRYRPPRLPRPRPRPIRRPRP | -0.0923 |
| RRIRYRPPRLPRPRPRPISYPRP | -0.325 |
| RRIRYRPPRLPRPRPRPIVHPRP | -2.04 |
| RRIRYRPPRLPRPRPRPIVVPRP | -0.414 |
| RRIRYRPPRLPRPRPRPIWFPRP | -0.269 |
| RRIRYRPPRLPRPRPRPIWGPRP | -0.0267 |
| RRIRYRPPRLPRPRPRPIWRPRP | 0.0429 |
| RRIRYRPPRLPRPRPRPIYLPRP | -0.0172 |
| RRIRYRPPRLPRPRPRPKACPRP | -0.00227 |
| RRIRYRPPRLPRPRPRPKAMPRP | -0.0317 |

| Sequence | shrunken log2 fold change |
| --- | --- |
| RRIRYRPPRLPRPRPRPKASPRP | -0.131 |
| RRIRYRPPRLPRPRPRPKDFPRP | 0.00489 |
| RRIRYRPPRLPRPRPRPKFLPRP | -0.139 |
| RRIRYRPPRLPRPRPRPKFWPRP | 0.449 |
| RRIRYRPPRLPRPRPRPKGKPRP | -0.215 |
| RRIRYRPPRLPRPRPRPKHFPRP | -0.327 |
| RRIRYRPPRLPRPRPRPKHKPRP | -0.545 |
| RRIRYRPPRLPRPRPRPKHNPRP | -0.68 |
| RRIRYRPPRLPRPRPRPKHTPRP | -0.567 |
| RRIRYRPPRLPRPRPRPKIEPRP | -0.00459 |
| RRIRYRPPRLPRPRPRPKIMPRP | -0.131 |
| RRIRYRPPRLPRPRPRPKIVPRP | -0.188 |
| RRIRYRPPRLPRPRPRPKKIPRP | -0.483 |
| RRIRYRPPRLPRPRPRPKKNPRP | -0.231 |
| RRIRYRPPRLPRPRPRPKKYPRP | -0.86 |
| RRIRYRPPRLPRPRPRPKMCPRP | 0.00281 |
| RRIRYRPPRLPRPRPRPKPWPRP | 0.03 |
| RRIRYRPPRLPRPRPRPKRPPRP | 0.45 |
| RRIRYRPPRLPRPRPRPKRYPRP | -0.0281 |
| RRIRYRPPRLPRPRPRPKSDPRP | -0.299 |
| RRIRYRPPRLPRPRPRPKSGPRP | 0.0623 |
| RRIRYRPPRLPRPRPRPKTDPRP | -0.863 |
| RRIRYRPPRLPRPRPRPKTKPRP | -0.295 |
| RRIRYRPPRLPRPRPRPKTQPRP | 0.0853 |
| RRIRYRPPRLPRPRPRPKTVPRP | -1.07 |

| Sequence | shrunken log2 fold change |
| --- | --- |
| RRIRYRPPRLPRPRPRPKVFPRP | 0.149 |
| RRIRYRPPRLPRPRPRPKWMPRP | -0.27 |
| RRIRYRPPRLPRPRPRPKWSPRP | -0.0252 |
| RRIRYRPPRLPRPRPRPLAWPRP | -0.0165 |
| RRIRYRPPRLPRPRPRPLCSPRP | -0.0549 |
| RRIRYRPPRLPRPRPRPLDLPRP | -0.0215 |
| RRIRYRPPRLPRPRPRPLFGPRP | -0.0957 |
| RRIRYRPPRLPRPRPRPLFVPRP | -0.507 |
| RRIRYRPPRLPRPRPRPLGTPRP | -0.227 |
| RRIRYRPPRLPRPRPRPLHDPRP | -0.74 |
| RRIRYRPPRLPRPRPRPLILPRP | -0.767 |
| RRIRYRPPRLPRPRPRPLIMPRP | -0.0566 |
| RRIRYRPPRLPRPRPRPLKKPRP | -0.339 |
| RRIRYRPPRLPRPRPRPLLRPRP | -0.468 |
| RRIRYRPPRLPRPRPRPLNQPRP | -0.343 |
| RRIRYRPPRLPRPRPRPLPMPRP | -0.624 |
| RRIRYRPPRLPRPRPRPLRHPRP | -0.177 |
| RRIRYRPPRLPRPRPRPLRIPRP | -0.36 |
| RRIRYRPPRLPRPRPRPLRMPRP | 0.0288 |
| RRIRYRPPRLPRPRPRPLSTPRP | -0.29 |
| RRIRYRPPRLPRPRPRPLTFPRP | -0.696 |
| RRIRYRPPRLPRPRPRPLVPPRP | -0.539 |
| RRIRYRPPRLPRPRPRPLYSPRP | -1.15 |
| RRIRYRPPRLPRPRPRPLYYPRP | -1.44 |
| RRIRYRPPRLPRPRPRPMAHPRP | -0.0234 |

| Sequence | shrunken log2 fold change |
| --- | --- |
| RRIRYRPPRLPRPRPRPMCTPRP | 0.00658 |
| RRIRYRPPRLPRPRPRPMCVPRP | -0.227 |
| RRIRYRPPRLPRPRPRPMFCPRP | -0.297 |
| RRIRYRPPRLPRPRPRPMFEPRP | -0.315 |
| RRIRYRPPRLPRPRPRPMHCPRP | -0.0557 |
| RRIRYRPPRLPRPRPRPMHEPRP | -0.405 |
| RRIRYRPPRLPRPRPRPMHKPRP | -0.454 |
| RRIRYRPPRLPRPRPRPMHPPRP | -0.0223 |
| RRIRYRPPRLPRPRPRPMHTPRP | -0.254 |
| RRIRYRPPRLPRPRPRPMIPPRP | -0.727 |
| RRIRYRPPRLPRPRPRPMIVPRP | -0.209 |
| RRIRYRPPRLPRPRPRPMIYPRP | -0.0142 |
| RRIRYRPPRLPRPRPRPMKVPRP | 0.0135 |
| RRIRYRPPRLPRPRPRPMMDPRP | -0.103 |
| RRIRYRPPRLPRPRPRPMMIPRP | -0.00702 |
| RRIRYRPPRLPRPRPRPMNFPRP | -0.0135 |
| RRIRYRPPRLPRPRPRPMNQPRP | -0.383 |
| RRIRYRPPRLPRPRPRPMQAPRP | -0.0122 |
| RRIRYRPPRLPRPRPRPMQSPRP | 2.85 |
| RRIRYRPPRLPRPRPRPMREPRP | 0.529 |
| RRIRYRPPRLPRPRPRPMRHPRP | -0.0913 |
| RRIRYRPPRLPRPRPRPMSMPRP | -0.304 |
| RRIRYRPPRLPRPRPRPMTHPRP | -0.348 |
| RRIRYRPPRLPRPRPRPMTLPRP | -0.0394 |
| RRIRYRPPRLPRPRPRPMVAPRP | 0.133 |

| Sequence | shrunken log2 fold change |
| --- | --- |
| RRIRYRPPRLPRPRPRPMVIPRP | -0.0231 |
| RRIRYRPPRLPRPRPRPMVTPRP | 0.0309 |
| RRIRYRPPRLPRPRPRPNACPRP | -0.047 |
| RRIRYRPPRLPRPRPRPNCGPRP | -0.00237 |
| RRIRYRPPRLPRPRPRPNCMPRP | -0.974 |
| RRIRYRPPRLPRPRPRPNCRPRP | -0.134 |
| RRIRYRPPRLPRPRPRPNCWPRP | -0.36 |
| RRIRYRPPRLPRPRPRPNDRPRP | -0.0645 |
| RRIRYRPPRLPRPRPRPNDTPRP | -0.921 |
| RRIRYRPPRLPRPRPRPNELPRP | -0.717 |
| RRIRYRPPRLPRPRPRPNEMPRP | 0.0143 |
| RRIRYRPPRLPRPRPRPNFWPRP | 0.293 |
| RRIRYRPPRLPRPRPRPNGKPRP | -0.186 |
| RRIRYRPPRLPRPRPRPNIPPRP | -1.09 |
| RRIRYRPPRLPRPRPRPNIVPRP | -0.224 |
| RRIRYRPPRLPRPRPRPNKDPRP | -1.01 |
| RRIRYRPPRLPRPRPRPNKQPRP | -0.0515 |
| RRIRYRPPRLPRPRPRPNLGPRP | -0.0146 |
| RRIRYRPPRLPRPRPRPNMFPRP | -0.186 |
| RRIRYRPPRLPRPRPRPNMWPRP | -0.391 |
| RRIRYRPPRLPRPRPRPNNEPRP | -1.27 |
| RRIRYRPPRLPRPRPRPNPTPRP | 0.0161 |
| RRIRYRPPRLPRPRPRPNQEPRP | 0.000655 |
| RRIRYRPPRLPRPRPRPNQFPRP | -0.533 |
| RRIRYRPPRLPRPRPRPNQIPRP | -0.0468 |

| Sequence | shrunken log2 fold change |
| --- | --- |
| RRIRYRPPRLPRPRPRPNQWPRP | 0.00192 |
| RRIRYRPPRLPRPRPRPNSNPRP | -1.47 |
| RRIRYRPPRLPRPRPRPNTVPRP | -0.301 |
| RRIRYRPPRLPRPRPRPNYFPRP | -1.69 |
| RRIRYRPPRLPRPRPRPPACPRP | -0.146 |
| RRIRYRPPRLPRPRPRPPDVPRP | -0.0764 |
| RRIRYRPPRLPRPRPRPPEDPRP | -0.145 |
| RRIRYRPPRLPRPRPRPPFFPRP | -0.0804 |
| RRIRYRPPRLPRPRPRPPFGPRP | -0.386 |
| RRIRYRPPRLPRPRPRPPFHPRP | -0.589 |
| RRIRYRPPRLPRPRPRPPFIPRP | -0.637 |
| RRIRYRPPRLPRPRPRPPGEPRP | 0.0198 |
| RRIRYRPPRLPRPRPRPPHRPRP | -0.0877 |
| RRIRYRPPRLPRPRPRPPIPPRP | 0.31 |
| RRIRYRPPRLPRPRPRPPKDPRP | 0.0611 |
| RRIRYRPPRLPRPRPRPPKGPRP | -0.163 |
| RRIRYRPPRLPRPRPRPPKWPRP | 0.223 |
| RRIRYRPPRLPRPRPRPPLYPRP | 0.755 |
| RRIRYRPPRLPRPRPRPPPGPRP | 0.909 |
| RRIRYRPPRLPRPRPRPPSEPRP | -0.0723 |
| RRIRYRPPRLPRPRPRPPSNPRP | -0.266 |
| RRIRYRPPRLPRPRPRPPTCPRP | -0.163 |
| RRIRYRPPRLPRPRPRPPWGPRP | -0.0336 |
| RRIRYRPPRLPRPRPRPPWNPRP | -0.161 |
| RRIRYRPPRLPRPRPRPPWWPRP | 0.605 |
